Drawing on PMC8094900, this text covers stoichiometry N and other: Trimer/(Trimer+Monomer) for five substances.

In assay [1] the target is Myrf N-terminal fragment (wild-type mouse Myrf) (mouse). The experiment in a line: cold western blot (SDS-PAGE in a cold chamber); N-terminally Flag-tagged Myrf constructs expressed in Oli-neu cells; SDS-PAGE in a cold condition, membrane probed with Flag antibodies; ratio of trimeric to monomeric N-terminal fragment. On the technique in general: In western blotting, separated proteins are transferred to a membrane and probed.

Assay [2] has as its target Myrf-F387S N-terminal fragment. The experiment in a line: cold western blot (cold SDS-PAGE, Flag immunoblot). The note with it: Flag-tagged constructs expressed in Oli-neu cells; SDS-PAGE in a cold condition; parent: est. 0.27; read off a plot.
For assay [3], the target named is Myrf-G435R N-terminal fragment. As to the kind of experiment: cold western blot (cold SDS-PAGE, Flag immunoblot). The note with it: Flag-tagged constructs expressed in Oli-neu cells; SDS-PAGE in a cold condition; parent: est. 0.27; read off a plot.
For assay [4], the target named is Myrf-L479V N-terminal fragment. As to the kind of experiment: cold western blot (cold SDS-PAGE, Flag immunoblot). The conditions noted are these: Flag-tagged constructs expressed in Oli-neu cells; SDS-PAGE in a cold condition; parent: est. 0.27; read off a plot.
The target in assay [5] is Myrf-Q403H N-terminal fragment. The experiment in a line: cold western blot (cold SDS-PAGE, Flag immunoblot). The note with it: Flag-tagged constructs expressed in Oli-neu cells; SDS-PAGE in a cold condition; parent: est. 0.27; read off a plot.

Sequence of Myrf N-terminal fragment (wild-type mouse Myrf) (Q3UR85 whole entry, the tested form may be a part): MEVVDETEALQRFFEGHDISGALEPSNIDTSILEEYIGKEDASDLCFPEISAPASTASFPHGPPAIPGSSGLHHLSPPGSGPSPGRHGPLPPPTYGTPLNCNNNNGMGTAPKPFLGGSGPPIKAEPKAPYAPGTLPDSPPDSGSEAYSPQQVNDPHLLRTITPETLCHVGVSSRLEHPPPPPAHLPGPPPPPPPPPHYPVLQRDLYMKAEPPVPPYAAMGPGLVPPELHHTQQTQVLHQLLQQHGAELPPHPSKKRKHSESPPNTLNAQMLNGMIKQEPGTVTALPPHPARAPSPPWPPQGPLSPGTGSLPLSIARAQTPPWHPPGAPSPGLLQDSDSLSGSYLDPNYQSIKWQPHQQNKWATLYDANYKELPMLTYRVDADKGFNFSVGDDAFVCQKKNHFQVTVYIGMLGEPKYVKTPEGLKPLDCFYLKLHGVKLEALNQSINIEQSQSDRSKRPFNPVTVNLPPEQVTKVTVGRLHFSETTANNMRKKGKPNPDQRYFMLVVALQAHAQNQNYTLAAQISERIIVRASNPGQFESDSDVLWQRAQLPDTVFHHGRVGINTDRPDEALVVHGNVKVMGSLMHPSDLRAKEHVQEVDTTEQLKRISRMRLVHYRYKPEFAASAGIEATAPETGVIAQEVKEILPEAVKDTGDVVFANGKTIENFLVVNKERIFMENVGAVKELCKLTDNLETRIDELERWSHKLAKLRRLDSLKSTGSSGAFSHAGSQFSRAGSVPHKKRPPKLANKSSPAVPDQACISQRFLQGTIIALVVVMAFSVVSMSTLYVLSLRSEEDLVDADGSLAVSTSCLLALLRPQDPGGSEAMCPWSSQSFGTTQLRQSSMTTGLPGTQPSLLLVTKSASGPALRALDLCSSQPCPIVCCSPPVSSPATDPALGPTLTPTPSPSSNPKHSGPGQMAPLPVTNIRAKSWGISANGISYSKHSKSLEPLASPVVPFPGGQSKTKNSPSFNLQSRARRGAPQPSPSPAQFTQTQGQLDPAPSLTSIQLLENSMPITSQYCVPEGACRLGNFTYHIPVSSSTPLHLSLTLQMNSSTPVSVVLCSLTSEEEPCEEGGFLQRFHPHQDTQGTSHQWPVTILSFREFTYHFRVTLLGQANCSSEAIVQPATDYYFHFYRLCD

As usually defined, the stoichiometry N is a count of units in the complex or per binding partner. Consider “Myrf N-terminal fragment (wild-type mouse Myrf) (domain or fragment)”, for which the stoichiometry N in assay [1] is 3.

Take “Myrf N-terminal fragment (wild-type mouse Myrf) F387S”: in assay [2], the other: Trimer/(Trimer+Monomer) was 0.045.

For “Myrf N-terminal fragment (wild-type mouse Myrf) G435R”, the other: Trimer/(Trimer+Monomer) in assay [3] was 0.02.

As for “Myrf N-terminal fragment (wild-type mouse Myrf) L479V”, the other: Trimer/(Trimer+Monomer) in assay [4] worked out at 0.01.

On to “Myrf N-terminal fragment (wild-type mouse Myrf) Q403H”, for which the other: Trimer/(Trimer+Monomer) in assay [5] turned out to be 0.08.
